# Assay results published in patent US20240132578A1.
# Legend:
# Experiment in all cases: cell-based or functional assay
# [1] = biological target: HIV-1 Env of pseudovirus TR0.11 (HIV-1)
# [2] = biological target: HIV-1 Env of pseudovirus THRO.18 (HIV-1)
# [3] = biological target: HIV-1 Env of isolate MGRM-A-010 (clade A) (HIV-1)
# [4] = biological target: HIV-1 Env of isolate MGRM-C-028 (clade C) (HIV-1)
# [5] = biological target: HIV-1 JRFL Env (HIV-1 isolate JRFL (clade B))
# [6] = biological target: HIV-1 MGRM-D-001 Env (HIV-1 isolate MGRM-D-001 (clade D))
# [7] = biological target: HIV-1 APV13 Env (HIV-1 isolate APV13 (clade B))
# [8] = biological target: HIV-1 NL43 envelope glycoprotein (Env), clade B pseudovirus (HIV-1)
# [9] = biological target: HIV-1 JRCSF envelope glycoprotein (Env), clade B pseudovirus (HIV-1)
# [10] = biological target: HIV-1 APV6 envelope glycoprotein (Env), clade B pseudovirus (HIV-1)
# [11] = biological target: HIV-1 92RW020 envelope glycoprotein (Env), clade A pseudovirus (HIV-1)
# [12] = biological target: HIV-1 MGRM-C-027 envelope glycoprotein (Env) on virus (HIV-1, clade C, isolate MGRM-C-027)
# [13] = biological target: HIV-1 APV13 envelope glycoprotein (Env) on virus (HIV-1, clade B, isolate APV13)
# [14] = biological target: HIV-1 92UG024 envelope glycoprotein (Env) on virus (HIV-1, clade D, isolate 92UG024)
# [15] = biological target: HIV-1 JRFL Env (pseudovirus) (HIV-1)
# [16] = biological target: HIV-1 92UG005 Env (pseudovirus) (HIV-1)
# [17] = biological target: HIV-1 MGRM-A-010 Env (pseudovirus) (HIV-1)
# [18] = biological target: HIV-1 93IN905 Env (pseudovirus) (HIV-1)
# [19] = biological target: HIV-1 JR-CSF Env E321aA (HIV-1 (isolate JR-CSF, clade B)) (UniProt P20871)
# [20] = biological target: HIV-1 envelope glycoprotein (Env) of isolate JRCSF (HIV-1) (UniProt P20871)
# [21] = biological target: HIV-1 envelope glycoprotein (Env) of isolate APV17 (HIV-1)
# [22] = biological target: HIV-1 envelope glycoprotein (Env) of isolate 92TH021 (HIV-1)
# [23] = biological target: HIV-1 envelope glycoprotein (Env) of isolate MGRM-D-018 (HIV-1)
# [24] = biological target: HIV-1 JRFL envelope glycoprotein (Env) (HIV-1)
# [25] = biological target: HIV-1 JR-CSF Env N241A (HIV-1 (isolate JR-CSF)) (UniProt P20871)
# [26] = biological target: HIV-1 92BR020 envelope glycoprotein (Env) on pseudovirus (HIV-1)
# [27] = biological target: HIV-1 Env of isolate 92BR020 (subtype B), on pseudovirus (HIV-1)
# [28] = biological target: HIV-1 envelope glycoprotein (Env) of isolate MG RM-A-002 (HIV-1)
# [29] = biological target: HIV-1 Env of isolate MGRM-F1-015 (subtype F) (HIV-1)
# [30] = biological target: HIV-1 envelope glycoprotein (Env) of isolate MG RM-A-008 (HIV-1)
# 5329_C19 (PGT-136) (antibody), sequence (VH): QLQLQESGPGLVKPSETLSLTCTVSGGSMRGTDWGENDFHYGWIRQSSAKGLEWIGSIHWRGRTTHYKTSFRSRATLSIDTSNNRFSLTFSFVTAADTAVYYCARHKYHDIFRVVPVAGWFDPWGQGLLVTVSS
# 5329_C19 (PGT-136) (antibody), sequence (VL): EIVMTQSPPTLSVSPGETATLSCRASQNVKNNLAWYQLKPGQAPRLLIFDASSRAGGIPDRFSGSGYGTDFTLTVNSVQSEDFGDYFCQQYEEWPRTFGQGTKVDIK
# 1443_C16 (PG16) (TCN-116) (antibody), sequence (VH): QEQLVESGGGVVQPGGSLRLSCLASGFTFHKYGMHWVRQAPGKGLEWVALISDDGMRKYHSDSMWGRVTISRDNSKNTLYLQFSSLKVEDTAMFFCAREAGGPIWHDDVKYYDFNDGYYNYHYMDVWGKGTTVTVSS
# 1443_C16 (PG16) (TCN-116) (antibody), sequence (VL): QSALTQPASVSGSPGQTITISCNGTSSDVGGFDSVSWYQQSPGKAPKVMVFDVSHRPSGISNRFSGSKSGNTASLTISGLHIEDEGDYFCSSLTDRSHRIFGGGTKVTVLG
substance,measurement,setting,value
1443_C16 (PG16) (TCN-116) (antibody),"IC50, pseudovirus neutralization (TZM-bl assay)",[1],3.61 µg/mL
same,"IC50, pseudovirus neutralization (TZM-bl assay)",[2],2.19 µg/mL
1496_C09 (PG9) (TCN-109) (antibody),Neutralization IC80,[3],0.121 µg/mL
same,Neutralization IC90,[3],0.242 µg/mL
same,Neutralization IC95,[3],0.456 µg/mL
same,neutralization IC50,[3],0.0375 µg/mL
same,Neutralization IC80,[4],0.645 µg/mL
same,Neutralization IC90,[4],1.65 µg/mL
same,Neutralization IC95,[4],3.71 µg/mL
same,neutralization IC50,[4],0.121 µg/mL
4838_L06 (PGT-121) (antibody),Neutralization IC80,[5],0.0806 µg/mL
same,Neutralization IC90,[5],0.151 µg/mL
same,Neutralization IC95,[5],0.267 µg/mL
same,Neutralization IC80,[6],3.29 µg/mL
same,Neutralization IC90,[6],6.26 µg/mL
same,Neutralization IC95,[6],9.39 µg/mL
same,Neutralization IC80,[7],1.31 µg/mL
same,Neutralization IC90,[7],2.8 µg/mL
same,Neutralization IC95,[7],5.15 µg/mL
4858_P08 (PGT-123) (antibody),"IC50, pseudovirus neutralization",[8],> 10 µg/mL
same,IC80 (pseudovirus neutralization),[8],> 10 µg/mL
same,IC90 (pseudovirus neutralization),[8],> 10 µg/mL
same,IC95 (pseudovirus neutralization),[8],> 10 µg/mL
same,"IC50, pseudovirus neutralization",[9],0.0423 µg/mL
same,IC80 (pseudovirus neutralization),[9],0.143 µg/mL
same,IC90 (pseudovirus neutralization),[9],0.289 µg/mL
same,IC95 (pseudovirus neutralization),[9],0.547 µg/mL
same,"IC50, pseudovirus neutralization",[10],0.0328 µg/mL
same,IC80 (pseudovirus neutralization),[10],0.145 µg/mL
same,IC90 (pseudovirus neutralization),[10],0.339 µg/mL
same,IC95 (pseudovirus neutralization),[10],0.726 µg/mL
same,"IC50, pseudovirus neutralization",[11],0.0038 µg/mL
same,IC80 (pseudovirus neutralization),[11],0.0106 µg/mL
same,IC90 (pseudovirus neutralization),[11],0.0194 µg/mL
same,IC95 (pseudovirus neutralization),[11],0.0343 µg/mL
4877_D15 (PGT-122) (antibody),Neutralization IC80,[12],0.499 µg/mL
same,Neutralization IC90,[12],> 10 µg/mL
same,Neutralization IC95,[12],> 10 µg/mL
same,neutralization IC50,[12],0.0388 µg/mL
same,Neutralization IC80,[13],4.14 µg/mL
same,Neutralization IC90,[13],8.6 µg/mL
same,Neutralization IC95,[13],> 10 µg/mL
same,neutralization IC50,[13],0.992 µg/mL
same,Neutralization IC80,[14],> 10 µg/mL
same,Neutralization IC90,[14],> 10 µg/mL
same,Neutralization IC95,[14],> 10 µg/mL
same,neutralization IC50,[14],> 10 µg/mL
5123_A06 (PGT-125) (antibody),"Neutralization by PGT-125, IC50",[15],0.0156 µg/mL
same,"Neutralization by PGT-125, IC80",[15],0.0462 µg/mL
same,"Neutralization by PGT-125, IC90",[15],0.0873 µg/mL
same,"Neutralization by PGT-125, IC95",[15],0.157 µg/mL
same,"Neutralization by PGT-125, IC50",[16],> 10 µg/mL
same,"Neutralization by PGT-125, IC80",[16],> 10 µg/mL
same,"Neutralization by PGT-125, IC90",[16],> 10 µg/mL
same,"Neutralization by PGT-125, IC95",[16],> 10 µg/mL
same,"Neutralization by PGT-125, IC50",[17],0.0055 µg/mL
same,"Neutralization by PGT-125, IC80",[17],0.024 µg/mL
same,"Neutralization by PGT-125, IC90",[17],0.0575 µg/mL
same,"Neutralization by PGT-125, IC95",[17],0.131 µg/mL
same,"Neutralization by PGT-125, IC50",[18],0.0137 µg/mL
same,"Neutralization by PGT-125, IC80",[18],0.0494 µg/mL
same,"Neutralization by PGT-125, IC90",[18],0.106 µg/mL
same,"Neutralization by PGT-125, IC95",[18],0.216 µg/mL
5136_H01 (PGT-131) (antibody),Fold IC50 increase relative to wild-type,[19],1.8 fold
5141_B17 (PGT-126) (antibody),Neutralization IC80,[20],0.018 µg/mL
same,Neutralization IC90,[20],0.0339 µg/mL
same,Neutralization IC95,[20],0.0608 µg/mL
same,neutralization IC50,[20],0.0061 µg/mL
same,Neutralization IC80,[21],4.43 µg/mL
same,Neutralization IC90,[21],> 10 µg/mL
same,Neutralization IC95,[21],> 10 µg/mL
same,neutralization IC50,[21],0.501 µg/mL
same,Neutralization IC80,[22],1.62 µg/mL
same,Neutralization IC90,[22],6.91 µg/mL
same,Neutralization IC95,[22],> 10 µg/mL
same,neutralization IC50,[22],0.115 µg/mL
same,Neutralization IC80,[23],0.0391 µg/mL
same,Neutralization IC90,[23],0.0918 µg/mL
same,Neutralization IC95,[23],0.205 µg/mL
same,neutralization IC50,[23],0.0093 µg/mL
5329_C19 (PGT-136) (antibody),Neutralization IC80,[24],> 10 µg/mL
same,Neutralization IC90,[24],> 10 µg/mL
same,Neutralization IC95,[24],> 10 µg/mL
same,neutralization IC50,[24],> 10 µg/mL
5343_B08 (PGT-135) (antibody),Fold IC50 increase relative to wild-type,[25],0.1 fold
same,Neutralization IC80,[26],0.253 µg/mL
same,Neutralization IC90,[26],0.43 µg/mL
same,Neutralization IC95,[26],0.72 µg/mL
same,neutralization IC50,[26],0.104 µg/mL
PGV04 (antibody),"IC50, single-round pseudovirus neutralization",[27],0.25 µg/mL
same,IC50,[28],0.093 µg/mL
same,"IC50 (µg/mL), pseudovirus neutralization",[29],0.179 µg/mL
same,IC50,[30],0.555 µg/mL
